Reference: publication doi:10.1101/2022.07.01.498528 (bioRxiv, 2022)

What was measured:
[1] = target: CMY-16 β-lactamase (Proteus mirabilis entry (host isolate …, UniProt Q4LCT4, strain)); experiment: ELISA
[2] = target: CMY-60 β-lactamase (Escherichia coli entry (host isolate …, UniProt G3F7G8, strain)); experiment: ELISA
[3] = target: CMY-42 β-lactamase (Escherichia coli entry (host isolate …, UniProt F4YXC2, strain)); experiment: ELISA
[4] = target: CMY-58 β-lactamase (Escherichia coli entry (host isolate …, UniProt F1C3E3, strain)); experiment: ELISA
[5] = target: CMY-61 β-lactamase (Escherichia coli entry (host isolate …, UniProt G3F7G9, strain)); experiment: ELISA
[6] = target: OXA-48 β-lactamase (class D) (Klebsiella pneumoniae, OXA-48, UniProt Q6XEC0); experiment: BLI
OXA-48 β-lactamase (class D), sequence (Q6XEC0 23-265): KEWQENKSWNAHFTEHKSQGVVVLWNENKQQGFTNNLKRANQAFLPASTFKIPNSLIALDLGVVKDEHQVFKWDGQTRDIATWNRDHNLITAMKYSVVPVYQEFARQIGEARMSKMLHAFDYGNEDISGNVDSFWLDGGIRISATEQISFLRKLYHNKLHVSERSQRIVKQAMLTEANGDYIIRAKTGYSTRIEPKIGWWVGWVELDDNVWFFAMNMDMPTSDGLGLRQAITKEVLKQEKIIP

[7] = target: TEM-1 β-lactamase (class A) (Escherichia coli (assumed), TEM-1, UniProt P62593); experiment: BLI
TEM-1 β-lactamase (class A), sequence (P62593 24-286): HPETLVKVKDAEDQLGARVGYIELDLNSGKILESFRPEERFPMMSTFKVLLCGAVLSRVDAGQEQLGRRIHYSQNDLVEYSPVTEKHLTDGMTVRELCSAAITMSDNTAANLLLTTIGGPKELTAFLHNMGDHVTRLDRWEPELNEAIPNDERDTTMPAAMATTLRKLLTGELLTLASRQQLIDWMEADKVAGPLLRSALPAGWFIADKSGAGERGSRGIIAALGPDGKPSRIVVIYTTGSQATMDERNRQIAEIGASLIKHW

[8] = target: VIM-4 β-lactamase (class B) (Pseudomonas aeruginosa, VIM-4, UniProt Q8KRJ3, strain); experiment: BLI
[9] = target: CMY-1 β-lactamase (class C) (Klebsiella pneumoniae, CMY-1, UniProt P71420, strain); experiment: BLI
[10] = target: AmpC P99 of Enterobacter cloacae (class C β-lactamase) (Enterobacter cloacae P99, UniProt P05364); experiment: BLI
AmpC P99 of Enterobacter cloacae (class C β-lactamase), sequence (P05364 21-381): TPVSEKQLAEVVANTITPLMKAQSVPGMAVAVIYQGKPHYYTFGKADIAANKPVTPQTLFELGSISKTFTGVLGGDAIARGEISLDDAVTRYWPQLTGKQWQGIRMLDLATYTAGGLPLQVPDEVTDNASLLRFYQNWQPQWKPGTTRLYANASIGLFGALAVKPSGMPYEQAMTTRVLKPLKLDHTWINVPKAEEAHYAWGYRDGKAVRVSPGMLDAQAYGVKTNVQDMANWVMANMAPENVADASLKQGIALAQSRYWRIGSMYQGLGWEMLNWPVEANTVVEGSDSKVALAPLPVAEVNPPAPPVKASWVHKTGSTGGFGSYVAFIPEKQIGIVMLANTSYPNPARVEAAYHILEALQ

Row | Binder | binding result [1] | binding result [2] | binding result [3] | binding result [4] | binding result [5] | binding result [6] | binding result [7] | binding result [8] | binding result [9] | binding result [10]
1 | VHH cAb_(CMY-2)(254) (VHH) VHH: QVQLVESGGGMVQPGGSLRLSCAASGFTFSNYDMSWVRRAPGKGPEWVSTINTGGGSTSYADSVKGRFTISRDNAKNTLYLQMNSLKPEDTALYYCTIDRGLHYSDLGEYDYWGQGTQVTVSS | binds | binds | binds | binds | binds | no binding (tested: 500 nM) | no binding (tested: 500 nM) | no binding (tested: 500 nM) | no binding (tested: 500 nM) | no binding (tested: 500 nM)
2 | VHH cAb_(CMY-2)(250) (VHH) VHH: QVQLVESGGGLVQPGGSLRLSCAASGSIFSIYGMGWYRQAPGKQRELVAEITSGGSTNYADSVKGRFTISRDNAKNTVYLQMNSLNPEDTAVYYCNADGTMWGAGDYWGQGTQVTVSS | – | – | – | – | – | no binding (tested: 500 nM) | no binding (tested: 500 nM) | no binding (tested: 500 nM) | – | binds
3 | VHH cAb_(CMY-2)(272) (VHH) VHH: QVQLVESGGGLVQPGGSLRLSCAASGSIFMIYAMGWYRQAPGKQRELVADITSGGSTDYTDSVKGRFTISRDKNTVYLQMNSLKPEDTAVYYCNADHGPGFGYDYWGQGTQVTVSS | – | – | – | – | – | no binding (tested: 500 nM) | no binding (tested: 500 nM) | no binding (tested: 500 nM) | no binding (tested: 500 nM) | no binding (tested: 500 nM)
